US20260022184

T1: CM10
T1 chain: MVPSALTVSG

T2: CM2
T2 chain: MVLSAVTASG

T3: CM5
T3 chain: MVLSAPTASG

T4: CM6
T4 chain: MVPSAVTASG

T5: CM7
T5 chain: MVPSAYTASG

T6: CM8
T6 chain: MVASALTASG

T7: CM9
T7 chain: MVVSALTASG


Legend:
CM10 = target: T1, CM10
CM2 = target: T2, CM2
CM5 = target: T3, CM5
CM6 = target: T4, CM6
CM7 = target: T5, CM7
CM8 = target: T6, CM8
CM9 = target: T7, CM9

SB1902-C2, sequence (chain, as listed by the source, chain 1 of 2): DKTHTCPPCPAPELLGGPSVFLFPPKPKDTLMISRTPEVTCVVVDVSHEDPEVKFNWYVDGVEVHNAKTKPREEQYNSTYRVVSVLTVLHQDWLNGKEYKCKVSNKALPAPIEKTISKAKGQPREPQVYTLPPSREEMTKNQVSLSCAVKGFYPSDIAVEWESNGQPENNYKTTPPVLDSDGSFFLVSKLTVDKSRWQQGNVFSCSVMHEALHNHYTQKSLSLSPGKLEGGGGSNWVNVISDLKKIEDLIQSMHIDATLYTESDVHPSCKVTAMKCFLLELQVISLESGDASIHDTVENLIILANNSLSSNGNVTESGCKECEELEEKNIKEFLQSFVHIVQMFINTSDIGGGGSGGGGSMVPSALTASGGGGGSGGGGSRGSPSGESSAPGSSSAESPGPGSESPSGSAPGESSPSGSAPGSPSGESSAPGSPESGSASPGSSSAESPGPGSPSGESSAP
SB1902-C2, sequence (chain, as listed by the source, chain 2 of 2): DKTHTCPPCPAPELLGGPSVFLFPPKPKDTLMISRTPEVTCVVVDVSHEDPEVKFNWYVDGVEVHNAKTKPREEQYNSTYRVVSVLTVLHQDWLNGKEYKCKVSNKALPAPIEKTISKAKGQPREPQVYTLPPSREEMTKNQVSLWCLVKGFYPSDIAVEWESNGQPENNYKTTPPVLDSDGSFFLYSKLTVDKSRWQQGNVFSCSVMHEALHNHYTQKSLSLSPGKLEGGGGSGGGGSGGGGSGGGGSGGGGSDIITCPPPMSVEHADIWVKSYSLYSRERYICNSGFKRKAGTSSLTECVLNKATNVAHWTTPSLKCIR
SB1902-C4, sequence (chain, as listed by the source, chain 1 of 2): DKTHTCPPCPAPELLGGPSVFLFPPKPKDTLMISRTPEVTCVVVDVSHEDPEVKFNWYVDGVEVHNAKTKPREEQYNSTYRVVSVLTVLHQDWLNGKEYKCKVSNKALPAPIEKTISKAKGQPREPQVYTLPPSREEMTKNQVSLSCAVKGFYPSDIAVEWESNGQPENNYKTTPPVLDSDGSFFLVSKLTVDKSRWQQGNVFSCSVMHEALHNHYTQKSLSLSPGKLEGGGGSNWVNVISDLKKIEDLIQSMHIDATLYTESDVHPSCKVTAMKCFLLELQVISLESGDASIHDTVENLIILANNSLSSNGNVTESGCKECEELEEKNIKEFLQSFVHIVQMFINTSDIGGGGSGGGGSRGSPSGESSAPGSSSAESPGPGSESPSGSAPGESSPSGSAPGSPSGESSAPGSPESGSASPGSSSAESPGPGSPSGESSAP
SB1902-C4, sequence (chain, as listed by the source, chain 2 of 2): as the sequence (chain, as listed by the source, chain 2 of 2) above
SB1902-C5, sequence (chain, as listed by the source, chain 1 of 2): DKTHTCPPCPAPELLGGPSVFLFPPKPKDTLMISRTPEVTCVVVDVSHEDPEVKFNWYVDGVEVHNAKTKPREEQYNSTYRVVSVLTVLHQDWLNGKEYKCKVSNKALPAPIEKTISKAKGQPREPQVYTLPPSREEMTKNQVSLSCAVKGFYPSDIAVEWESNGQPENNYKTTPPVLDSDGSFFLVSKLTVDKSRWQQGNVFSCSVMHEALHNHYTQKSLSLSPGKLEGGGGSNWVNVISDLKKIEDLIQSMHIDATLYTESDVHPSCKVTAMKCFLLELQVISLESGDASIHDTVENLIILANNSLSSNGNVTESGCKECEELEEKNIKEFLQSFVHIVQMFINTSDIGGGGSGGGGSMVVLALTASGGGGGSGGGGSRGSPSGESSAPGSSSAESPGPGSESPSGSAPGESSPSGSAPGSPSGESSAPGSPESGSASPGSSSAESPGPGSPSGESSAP
SB1902-C5, sequence (chain, as listed by the source, chain 2 of 2): as the sequence (chain, as listed by the source, chain 2 of 2) above

Protein | in vitro protease digestion (data not shown) (CM10) | in vitro protease digestion (data not shown) (CM2) | in vitro protease digestion (data not shown) (CM5) | in vitro protease digestion (data not shown) (CM6) | in vitro protease digestion (data not shown) (CM7) | in vitro protease digestion (data not shown) (CM8) | in vitro protease digestion (data not shown) (CM9) | digestion efficiency by SDS-PAGE (1 µg activated MMP2, 250 µg prodrug, 37° C., 5 hrs) (SB1902-C2) | in vitro protease digestion, polyacrylamide gel (SB1902-C2) | in vitro protease digestion, polyacrylamide gel (SB1902-C4) | in vitro protease digestion, polyacrylamide gel (SB1902-C5)
recombinant human MMP2 (protein) YNFFPRKPKWDKNQITYRIIGYTPDLDPETVDDAFARAFQVWSDVTPLRFSRIHDGEADIMINFGRWEHGDGYPFDGKDGLLAHAFAPGTGVGGDSHFDDDELWTLGEGQVVRVKYGNADGEYCKFPFLFNGKEYNSCTDTGRSDGFLWCSTTYNFEKDGKYGFCPHEALFTMGGNAEGQPCKFPFRFQGTSYDSCTTEGRTDGYRWCGTTEDYDRDKKYGFCPETAMSTVGGNSEGAPCVFPFTFLGNKYESCTSAGRSDGKMWCATTANYDDDRKWGFCPDQGYSLFLVAAHEFGHAMGLEHSQDPGALMAPIYTYTKNFRLSQDDIKGIQELYGASPDIDLGTGPTPTLGPVTPEICKQDIVFDGIAQIRGEIFFFKDRFIWRTVTPRDKPMGPLLVATFWPELPEKIDAVYEAPQEEKAVFFAGNEYWIYSASTLERGYPKPLTSLGLPPDVQRVDAAFNWSKNKKTYIFAGDKFWRYNEVKKKMDPGFPKLIADAWNAIPDNLDAVVDLQGGGHSYFFKGAYYLKLENQSLKSVKFGSIKSDWLGC | The other cleavable moieties (such as CM2, CM5-CM10) was also cleavable in vitro by both MMP2 and MMP9 (data not shown) | The other cleavable moieties (such as CM2, CM5-CM10) was also cleavable in vitro by both MMP2 and MMP9 (data not shown) | The other cleavable moieties (such as CM2, CM5-CM10) was also cleavable in vitro by both MMP2 and MMP9 (data not shown) | The other cleavable moieties (such as CM2, CM5-CM10) was also cleavable in vitro by both MMP2 and MMP9 (data not shown) | The other cleavable moieties (such as CM2, CM5-CM10) was also cleavable in vitro by both MMP2 and MMP9 (data not shown) | The other cleavable moieties (such as CM2, CM5-CM10) was also cleavable in vitro by both MMP2 and MMP9 (data not shown) | The other cleavable moieties (such as CM2, CM5-CM10) was also cleavable in vitro by both MMP2 and MMP9 (data not shown) | about 90% of the prodrug SB1902-C2 was digested | The mutated substrate CM1 was cleavable in vitro by both MMP2 and MMP9 enzymes, with an enzyme dose-dependent manner | the non-cleavable G4S linker in SB1902-C4 was resistant to both MMP2 and MMP9 enzyme digestion | The mutated substrate CM4 was cleavable in vitro by both MMP2 and MMP9 enzymes, with an enzyme dose-dependent manner
recombinant human MMP9 (protein) MRTPRCGVPDLGRFQTFEGDLKWHHHNITYWIQNYSEDLPRAVIDDAFARAFALWSAVTPLTFTRVYSRDADIVIQFGVAEHGDGYPFDGKDGLLAHAFPPGPGIQGDAHFDDDELWSLGKGVVVPTRFGNADGAACHFPFIFEGRSYSACTTDGRSDGLPWCSTTANYDTDDRFGFCPSERLYTQDGNADGKPCQFPFIFQGQSYSACTTDGRSDGYRWCATTANYDRDKLFGFCPTRADSTVMGGNSAGELCVFPFTFLGKEYSTCTSEGRGDGRLWCATTSNFDSDKKWGFCPDQGYSLFLVAAHEFGHALGLDHSSVPEALMYPMYRFTEGPPLHKDDVNGIRHLYGPRPEPEPRPPTTTTPQPTAPPTVCPTGPPTVHPSERPTAGPTGPPSAGPTGPPTAGPSTATTVPLSPVDDACNVNIFDAIAEIGNQLYLFKDGKYWRFSEGRGSRPQGPFLIADKWPALPRKLDSVFEERLSKKLFFFSGRQVWVYTGASVLGPRRLDKLGLGADVAQVTGALRSGRGKMLLFSGRRLWRFDVKAQMVDPRSASEVDRMFPGVPLDTHDVFQYREKAYFCQDRFYWRVSSRSELNQVDQVGYVTYDILQCPED | The other cleavable moieties (such as CM2, CM5-CM10) was also cleavable in vitro by both MMP2 and MMP9 (data not shown) | The other cleavable moieties (such as CM2, CM5-CM10) was also cleavable in vitro by both MMP2 and MMP9 (data not shown) | The other cleavable moieties (such as CM2, CM5-CM10) was also cleavable in vitro by both MMP2 and MMP9 (data not shown) | The other cleavable moieties (such as CM2, CM5-CM10) was also cleavable in vitro by both MMP2 and MMP9 (data not shown) | The other cleavable moieties (such as CM2, CM5-CM10) was also cleavable in vitro by both MMP2 and MMP9 (data not shown) | The other cleavable moieties (such as CM2, CM5-CM10) was also cleavable in vitro by both MMP2 and MMP9 (data not shown) | The other cleavable moieties (such as CM2, CM5-CM10) was also cleavable in vitro by both MMP2 and MMP9 (data not shown) | – | The mutated substrate CM1 was cleavable in vitro by both MMP2 and MMP9 enzymes, with an enzyme dose-dependent manner | the non-cleavable G4S linker in SB1902-C4 was resistant to both MMP2 and MMP9 enzyme digestion | The mutated substrate CM4 was cleavable in vitro by both MMP2 and MMP9 enzymes, with an enzyme dose-dependent manner
